Results from US6653533, “Nucleic acids encoding proteins with pathogen resistance activity and plants transformed therewith” (Purdue Research Foundation).
Where a chain is given by its changes, count along the chain named.

B1: wild type gln2 PR-box 2x (dsDNA)
DNA 1: CATAAGAGCCGCCACTAAAATAAGACCGATCAAATAAGAGCCGCCAT
DNA 2: ATGGCGGCTCTTATTTGATCGGTCTTATTTTAGTGGCGGCTCTTATG
B2: mutated PR-box 2x (dsDNA)
DNA 1: B1 DNA 1 with G8T, G11T, G40T, G43T
DNA 2: B1 DNA 2 with C5A, C8A, C37A, C40A

Legend:
[1] = target: T1, Pti6 (Lycopersicon esculentum, UniProt O04682 SEQ:1-248); assay: EMSA; 4 fmol probe, poly(dA-dT), 25 mM Hepes pH 7.5, 40 mM KCl, room temperature; settings: tags: GST fusion (pGEX), E. coli PR745; label: 32P end label
Protocol: (§1) The wild type gln2 PR-box 2× ([…] […])(SEQ ID NO:17) and mutated PR-box 2× ([…] […]) (SEQ ID NO:18) were end-labeled by 32P as described by Ausubel, F. M., Brent, R., Kingston, R. E., Moore, D. D., Seidman, J. G., Smith, J. A., and Struhl, K. (1994). Current Protocols in Molecular Biology. (New York: Greene Publish Associates/John Wiley and Sons). Four fmol of probe was mixed with each of the purified GST-fusion proteins in a buffer containing 2 μg poly(dA-dT) (dA-dT), 25 mM Hepes (PH7.5), 40 mM KCl, 0.1 mM EDTA, 10% glycerol, and 1 mM DTT, incubated at room temperature for 15 minutes, and electrophoresed on a 4% polyacrylamide gel in 0.25×TBE buffer. Ohme-Takagi, M. and Shinshi, H. (1995). Ethylene-inducible DNA-binding proteins that interact with an ethylene-responsive element. Plant Cell 7, 173–182. The gel was subsequently dried and exposed to x-ray film. […] In contrast to GST-Pti5 and GST-Pti6, neither GST-Pti1 nor GST itself bound to the PR-box.

[2] = target: T2, Pti5 (Lycopersicon esculentum, UniProt O04681 SEQ:1-161); assay: as above; settings: tags: GST fusion (pGEX), E. coli PR745; label: 32P end label
Protocol: as §1

[3] = target: GST (UniProt P08515 P08515:1-218); assay: EMSA; negative control protein; settings: tags: GST alone; label: 32P end label
Protocol: as §1

[4] = target: T3, Pti1 (Lycopersicon esculentum, UniProt Q41328 Q41328:1-354); assay: EMSA; negative control protein; settings: tags: GST fusion; label: 32P end label
T3 sequence: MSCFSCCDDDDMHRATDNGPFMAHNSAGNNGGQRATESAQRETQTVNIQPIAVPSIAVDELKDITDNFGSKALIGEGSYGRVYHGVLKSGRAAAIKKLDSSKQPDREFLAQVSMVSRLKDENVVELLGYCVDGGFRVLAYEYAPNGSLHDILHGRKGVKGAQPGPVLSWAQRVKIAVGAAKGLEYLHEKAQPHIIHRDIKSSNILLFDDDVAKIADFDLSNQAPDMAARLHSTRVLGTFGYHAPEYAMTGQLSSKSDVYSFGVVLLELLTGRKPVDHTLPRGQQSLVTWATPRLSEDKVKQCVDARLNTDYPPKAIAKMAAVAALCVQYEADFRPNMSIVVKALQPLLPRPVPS
Protocol: as §1

[5] = target: T1, Pti6; assay: EMSA; no binding detected; same buffer; settings: tags: GST fusion (pGEX), E. coli PR745; label: 32P end label
Protocol: as §1

[6] = target: T2, Pti5; assay: EMSA; no binding detected; same buffer; settings: tags: GST fusion (pGEX), E. coli PR745; label: 32P end label
Protocol: as §1

T2 sequence (O04681 other isoform, or with tags, fused parts or gaps): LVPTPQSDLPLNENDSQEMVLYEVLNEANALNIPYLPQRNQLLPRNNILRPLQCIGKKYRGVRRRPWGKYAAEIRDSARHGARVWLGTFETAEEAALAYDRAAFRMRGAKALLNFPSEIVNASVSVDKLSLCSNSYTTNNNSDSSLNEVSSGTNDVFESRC
T1 sequence (O04682 whole entry, the tested form may be a part): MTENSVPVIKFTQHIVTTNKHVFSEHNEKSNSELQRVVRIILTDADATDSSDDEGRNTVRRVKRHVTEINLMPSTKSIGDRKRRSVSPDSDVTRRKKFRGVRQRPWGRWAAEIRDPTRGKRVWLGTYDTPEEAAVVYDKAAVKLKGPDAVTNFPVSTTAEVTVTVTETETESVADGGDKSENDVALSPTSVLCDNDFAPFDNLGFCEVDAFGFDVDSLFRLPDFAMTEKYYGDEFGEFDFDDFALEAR
GST, sequence (P08515 whole entry, one chain of several): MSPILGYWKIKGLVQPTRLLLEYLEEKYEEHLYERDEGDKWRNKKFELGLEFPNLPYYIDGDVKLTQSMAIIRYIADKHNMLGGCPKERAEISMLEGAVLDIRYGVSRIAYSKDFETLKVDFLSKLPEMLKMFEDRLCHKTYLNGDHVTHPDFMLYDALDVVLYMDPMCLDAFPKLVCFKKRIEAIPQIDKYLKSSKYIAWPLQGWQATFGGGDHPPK

Row | Binder | binding result [1] | binding result [2] | binding result [3] | binding result [4] | binding result [5] | binding result [6]
1 | B1 | binds | binds | no binding | no binding |  | 
2 | B2 |  |  |  |  | no binding | no binding
